Results: paper PMC8565334, “The horizontal transfer of Pseudomonas aeruginosa PA14 ICE PAPI-1 is controlled by a transcriptional triad between TprA, NdpA2 and MvaT”

B1: R3.2 (tprA-BS) (dsDNA)
DNA 1: AGTATTTAAAGCTCAATTAGCACCCCGTACTGT
DNA 2: ACAGTACGGGGTGCTAATTGAGCTTTAAATACT
B2: R3.4 (dsDNA)
DNA 1: ATTCTAAAACGATTAGAACTTCTATTTTATCCA
DNA 2: TGGATAAAATAGAAGTTCTAATCGTTTTAGAAT
B3: R3.1 (dsDNA)
DNA 1: AATTTAGCCCAATAGTATTTAAAGCTCAATTAGCAC
DNA 2: GTGCTAATTGAGCTTTAAATACTATTGGGCTAAATT
B4: R3.3 (dsDNA)
DNA 1: TACTGTCTGACCTGAGTTCAACAAAGCATTCTA
DNA 2: TAGAATGCTTTGTTGAACTCAGGTCAGACAGTA
B5: R5 (dsDNA)
DNA 1: CCTAGTCATCGAGAAATCCCCTCCCCTGTTGCCGAGTATTTCCTGCTGATGCGTGGCGGATGGCCTGCCACTGTGTGCCCCATCATCAAAGGGGGCCTCA
DNA 2: TGAGGCCCCCTTTGATGATGGGGCACACAGTGGCAGGCCATCCGCCACGCATCAGCAGGAAATACTCGGCAACAGGGGAGGGGATTTCTCGATGACTAGG
B6: R3 (dsDNA)
DNA 1: AATTTAGCCCAATAGTATTTAAAGCTCAATTAGCACCCCGTACTGTCTGACCTGAGTTCAACAAAGCATTCTAAAACGATTAGAACTTCTATTTTATCCA
DNA 2: TGGATAAAATAGAAGTTCTAATCGTTTTAGAATGCTTTGTTGAACTCAGGTCAGACAGTACGGGGTGCTAATTGAGCTTTAAATACTATTGGGCTAAATT
B7: R2 (dsDNA)
DNA 1: AGTACTGAATCCAGCCACTACCAAGGGGTTAACTGATGCCAGGCTTGGAAATACGGAGCCTTTCCAAGCGACTAAAACAAAGAAGAAAGCTCCCCAGAAA
DNA 2: TTTCTGGGGAGCTTTCTTCTTTGTTTTAGTCGCTTGGAAAGGCTCCGTATTTCCAAGCCTGGCATCAGTTAACCCCTTGGTAGTGGCTGGATTCAGTACT
B8: R1 (dsDNA)
DNA 1: TTGCAGGGGTTTCGGAGAAAAAACCTGTGACCCAGAACTCTTTTTCCGTATATTTTAAAGCGAAGTCTTCAACAAGCCTTACCGAGAAAGGAAACAGGAT
DNA 2: ATCCTGTTTCCTTTCTCGGTAAGGCTTGTTGAAGACTTCGCTTTAAAATATACGGAAAAAGAGTTCTGGGTCACAGGTTTTTTCTCCGAAACCCCTGCAA
B9: R4 (dsDNA)
DNA 1: TTTCTAACAACGATTCCCACCTGGCTCGCTTTAGGCGTAACATGAAAAACCTTCATCGCTCCTAATCCGTTTCCCTTACGCCTGCCTCGCTCACCCTCTG
DNA 2: CAGAGGGTGAGCGAGGCAGGCGTAAGGGAAACGGATTAGGAGCGATGAAGGTTTTTCATGTTACGCCTAAAGCGAGCCAGGTGGGAATCGTTGTTAGAAA

Molecular target: T1, TprA (Pseudomonas aeruginosa PA14, UniProt A0A0H2ZFZ8 1-84)
Assay: EMSA
Settings: protein: recombinant; tags: His-tag removed by TEV; chain copies: 2; label: 5'-Cy5 on strand 1; blunt

Row | Binder | binding result
1 | B1 | binds
2 | B2 | no binding
3 | B3 | no binding
4 | B4 | no binding

Molecular target: T1, TprA
Assay: EMSA; 1 uM TprA
Settings: protein: recombinant; tags: His-tag removed by TEV; chain copies: 2; label: 5'-Cy5 on strand 1; blunt

Row | Binder | binding result
5 | B5 | no binding
6 | B6 | binds
7 | B7 | no binding
8 | B8 | no binding
9 | B9 | no binding
